Results taken from patent US7910106B2, “Combinations of SAP depleting agents and anti-SAP antibodies” (Pentraxin Therapeutics Ltd., priority 2007, dated 2011).
Values belong to the molecule of their own block, whether it stands above or below them.

Columns and labels:
[1] = target: T1, SAP (Homo sapiens, UniProt P02743); assay: CPHPC administration in human systemic amyloidosis patients; type: in vivo; parameters: Human SAP is a constitutive protein in the plasma; from tissue; host or cells: plasma/serum and amyloid deposits of human patients; conditions: after months of continuous CPHPC administration
T1 sequence (P02743 20-223): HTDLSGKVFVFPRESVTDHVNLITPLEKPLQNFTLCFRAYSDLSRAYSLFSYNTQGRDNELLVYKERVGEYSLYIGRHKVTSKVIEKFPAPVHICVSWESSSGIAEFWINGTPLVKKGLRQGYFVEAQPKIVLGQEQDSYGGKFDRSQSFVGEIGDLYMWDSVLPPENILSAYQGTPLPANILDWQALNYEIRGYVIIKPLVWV

[2] = target: T1, SAP; assay: Human SAP in serum and organ extracts by electroimmunoassay, AA amyloidotic human SAP transgenic mice (Example 1); type: in vivo, mouse; parameters: from tissue; host or cells: serum, spleen and liver of C57BL/6 mice with the mouse SAP gene deleted and transgenic for human SAP; conditions: for Human SAP concentrations in serum [mean (SD)]: post CPHPC before antibody day 0, CPHPC 1 mg/ml in drinking water
Text: In the present study AA amyloidosis was induced in mice by amyloid enhancing factor injection followed by repeated casein injections to elicit persistent acute inflammation and thus sufficiently sustained increase in SAA production to promote AA amyloid deposition in all animals. A unique strain of pure line C57BL/6 animals was used in which the mouse SAP gene has been deleted^13 and a human SAP transgene has been introduced^14, 15. […] We then treated three very closely matched groups as follows:
Systemic AA amyloidosis was induced in adult male (n=61) and female (n=32) pure line C57BL/6 mice with the mouse SAP gene deleted and which were transgenic for human SAP^15. Each mouse received a single dose of amyloid enhancing factor^9 by intravenous injection followed 4 days later by 10 daily subcutaneous injections of 10% w/v casein in solution in 0.1M NaHCO3 administered over a 12 day period^13. Seven days after the last casein injection, KI was introduced into the drinking water of all mice and 3 days later each mouse received an intravenous injection of a standard dose of ^125I-labelled human SAP^6,18. Four adult male and four female mice from the same colony but which had not received any other treatment were also given KI and ^125I-SAP as controls. All mice underwent whole body counting 24, 48, 72 96 and 168 h after the tracer injection to determine retention of radioactivity as an index of whole body amyloid load. […] The mice were then allocated to three closely matched groups with as close as possible to the same total numbers and sex distribution in each group. Ten days after the ^125I-SAP injection groups one and two were started on CPHPC in their drinking water at 1 mg/ml and continued on that treatment until the end of the experiment. Group three received no treatment at this or any later stage of the study. Five days after starting the CPHPC each animal in group one received an intraperitoneal injection comprising 1 ml of the whole IgG fraction of monospecific sheep anti-human SAP antiserum at 50 mg/ml containing 7 mg/ml of specific antibody in solution in phosphate buffered physiological saline. The antiserum was raised by immunisation of sheep with 100% pure human SAP. At the same time all animals in group 2 received an intraperitoneal injection comprising 1 ml of the whole IgG fraction of monospecific sheep anti-human oncostatin M receptor antiserum at 50 mg/ml in solution in phosphate buffered physiological saline. […] Twenty eight days after the intraperitoneal injections all mice were killed by bleeding out under terminal anaesthesia and the liver and spleen from each were removed. Each organ was weighed and then divided into three portions, one of which was also weighed and used for extraction of SAP, while the second portion was snap frozen for subsequent immunohistochemical and cytochemical analysis without fixation, and the last part was fixed in buffered formalin for routine histology and estimation of amyloid by Congo red staining^19. All mice were weighed at the time of assignment to the groups after induction of amyloidosis but before administration of ^125I-SAP. They were all weighed again before being killed at the end of the experiment. All mice were bled four times: (1) immediately before groups […] were started on CPHPC; (2) the day before injection of IgG preparations in groups […]; (3) 14 days after the IgG injections; (4) at the time of killing. Sections of spleen and liver of all animals stained with Congo red were independently examined by three different expert observers blinded to the treatment each mouse had received and scored for the amount of amyloid present as previously reported. The scores of 10^0-10^4 represent an approximately log base 10 ranking scale from 10^0, corresponding to one or two tiny specks of amyloidosis among several sections of a particular organ, to 10^4 corresponding to abundant widespread deposits comprising about 10,000 times more amyloid^13. […]

[3] = target: T1, SAP; assay: Treatment of a patient with systemic amyloidosis using CPHPC and anti-SAP antibody (Example 2); type: in vivo; parameters: Human SAP is a constitutive protein in the plasma; from tissue; host or cells: plasma/serum and amyloid deposits of human patients; conditions: day after bolus intravenous 100 mg CPHPC
Experimental: A patient suffering from systemic amyloidosis is diagnosed by clinical examination and routine investigations leading to suspicion of amyloidosis, followed by specific confirmation by expert histochemical examination of biopsies of affected tissues. Radiolabelled SAP scintigraphy is performed in the UK NHS National Amyloidosis Centre at the Centre for Amyloidosis and Acute Phase Proteins in the Department of Medicine of University College London at the Royal Free Hospital. […] Routine clinical investigations of organ function establish the extent and severity of tissue and organ damage caused by the amyloid deposits, as well as the presence and severity of any underlying primary disease which may have led to amyloid deposition.
The patient is treated with the SAP depleting drug, CPHPC, administered by bolus intravenous injection of a dose of 100 mg. The following day a blood sample is taken. This confirms by specific immunoassay that the SAP concentration in the serum has been reduced by 90%. An intravenous infusion of anti-SAP antibody is then commenced and over a period of several hours a dose of 1000 mg of antibody is administered sufficient to bind to SAP within the amyloid deposits throughout the body. CPHPC is administered parenterally twice daily for the next two weeks, to ensure that plasma SAP values remain suppressed. […]

[4] = target: T1, SAP; parameters: Human SAP is a constitutive protein in the plasma; from tissue; host or cells: plasma/serum and amyloid deposits of human patients; conditions: in vivo; cited from earlier work
[5] = cited from earlier work
[6] = target: human serum amyloid P component (SAP), isolated pure, native (human) (UniProt P02743); assay: Biacore (SPR), isolated pure SAP alone immobilised on the chip
Sequence of human serum amyloid P component (SAP), isolated pure, native (human) (P02743 20-223): as above

[7] = target: human serum amyloid P component (SAP), isolated pure, native (human) (UniProt P02743); assay: IRMA, SAP non-covalently immobilised, antibody at 0.1 ug/ml, detection polyvalent anti-mouse IgG
[8] = target: human serum amyloid P component (SAP), isolated pure, native (human) (UniProt P02743); assay: IRMA, SAP non-covalently immobilised, antibody at 10 ug/ml, detection polyvalent anti-mouse IgG
[9] = target: human serum amyloid P component (SAP), isolated pure, native (human) (UniProt P02743); assay: IRMA, SAP non-covalently immobilised, antibody at 0.1 ug/ml, detection anti-mouse IgG2a
[10] = target: human serum amyloid P component (SAP), isolated pure, native (human) (UniProt P02743); assay: IRMA, SAP alone covalently immobilised, in EDTA, radiolabelled sheep anti-mouse IgG, mean n=3
[11] = target: human serum amyloid P component (SAP), isolated pure, native (human) (UniProt P02743); assay: IRMA, SAP non-covalently immobilised, antibody at 10 ug/ml, detection anti-mouse IgG2a
[12] = target: human SAP complexed with CPHPC and covalently cross-linked with BS3 (human) (UniProt P02743); assay: IRMA, SAP-CPHPC complex covalently immobilised, in EDTA, radiolabelled sheep anti-mouse IgG, mean n=3
Sequence of human SAP complexed with CPHPC and covalently cross-linked with BS3 (human) (P02743 20-223, one chain of several): as the sequence (P02743 20-223) above

[13] = target: human serum amyloid P component (SAP), isolated pure, native (human) (UniProt P02743); assay: IRMA, SAP non-covalently immobilised, antibody at 1 ug/ml, detection polyvalent anti-mouse IgG
[14] = target: human serum amyloid P component (SAP), isolated pure, native (human) (UniProt P02743); assay: IRMA, SAP alone captured on immobilised sheep polyclonal anti-human SAP, in calcium, radiolabelled sheep anti-mouse IgG, mean n=3
[15] = target: human serum amyloid P component (SAP), isolated pure, native (human) (UniProt P02743); assay: IRMA, SAP non-covalently immobilised, antibody at 100 ug/ml, detection polyvalent anti-mouse IgG
[16] = target: human serum amyloid P component (SAP), isolated pure, native (human) (UniProt P02743); assay: IRMA, SAP non-covalently immobilised, antibody at 1 ug/ml, detection anti-mouse IgG2a
[17] = target: human serum amyloid P component (SAP), isolated pure, native (human) (UniProt P02743); assay: IRMA, SAP non-covalently immobilised, antibody at 100 ug/ml, detection anti-mouse IgG2a
[18] = target: human SAP complexed with CPHPC and covalently cross-linked with BS3 (human) (UniProt P02743); assay: IRMA, SAP-CPHPC complex captured on immobilised sheep polyclonal anti-human SAP, in calcium, radiolabelled sheep anti-mouse IgG, mean n=3
[19] = target: human serum amyloid P component (SAP), isolated pure, native (human) (UniProt P02743); assay: IRMA, SAP alone covalently immobilised, in calcium, radiolabelled sheep anti-mouse IgG, mean n=3
[20] = target: human serum amyloid P component (SAP), isolated pure, native (human) (UniProt P02743); assay: IRMA, SAP non-covalently immobilised, antibody at 0.01 ug/ml, detection polyvalent anti-mouse IgG
[21] = target: human serum amyloid P component (SAP), isolated pure, native (human) (UniProt P02743); assay: IRMA, SAP non-covalently immobilised, antibody at 0.001 ug/ml, detection anti-mouse IgG2a
[22] = target: human serum amyloid P component (SAP), isolated pure, native (human) (UniProt P02743); assay: IRMA, SAP non-covalently immobilised, antibody at 0.01 ug/ml, detection anti-mouse IgG2a
[23] = target: human serum amyloid P component (SAP), isolated pure, native (human) (UniProt P02743); assay: IRMA, SAP non-covalently immobilised, antibody at 0.001 ug/ml, detection polyvalent anti-mouse IgG
[24] = target: human SAP complexed with CPHPC and covalently cross-linked with BS3 (human) (UniProt P02743); assay: IRMA, SAP-CPHPC complex covalently immobilised, in calcium, radiolabelled sheep anti-mouse IgG, mean n=3

Greatest depletion of SAP from amyloid deposits [1]: about 90%
Human SAP concentrations in serum [mean (SD)] ([2]; females): 4.0 (1.4) mg/l
Human SAP concentrations in serum ([2]; females, post antibody day 14): trace
Human SAP concentrations in serum ([2]; females, post antibody day 28): trace
Human SAP concentrations in serum [mean (SD)] ([2]; males): 2.9 (1.3) mg/l
Human SAP concentrations in serum ([2]; males, post antibody day 14): trace
Human SAP concentrations in serum ([2]; males, post antibody day 28): trace
Reduction of SAP concentration in the serum [3]: 90%
Molecule: O=C(O)[C@H]1CCCN1C(=O)CCCCC(=O)N1CCC[C@@H]1C(=O)O [CPHPC, (R)-1-[6-[(R)-2-Carboxy-pyrrolidin-1-yl]-6-oxo-hexanoyl]pyrrolidine-2-carboxylic acid]
Tolerability / adverse effects [4]: extremely well tolerated

Molecule: human SAP: isolated pure human SAP injected to load amyloid deposits
Half time of persistence in amyloid deposits ([5]; amyloidotic mice): 3 to 4 days
Half life of clearance from the circulation ([5]; human SAP not bound to amyloid): 3 to 4 h

koff [6]: 6e-05 s⁻¹
kon [6]: 20000 M⁻¹ s⁻¹
Activity bound (d.p.m.) [7]: 4560 d.p.m.
Activity bound (d.p.m.) [8]: 15400 d.p.m.
Activity bound (d.p.m.) [9]: 589 d.p.m.
Activity bound (d.p.m.) [10]: 4050 d.p.m.
Activity bound (d.p.m.) [11]: 1980 d.p.m.
Activity bound (d.p.m.) [12]: 5140 d.p.m.
Activity bound (d.p.m.) [13]: 12100 d.p.m.
Activity bound (d.p.m.) [14]: 9310 d.p.m.
Activity bound (d.p.m.) [15]: 16200 d.p.m.
Activity bound (d.p.m.) [16]: 1650 d.p.m.
Activity bound (d.p.m.) [17]: 2200 d.p.m.
Activity bound (d.p.m.) [18]: 7120 d.p.m.
Activity bound (d.p.m.) [19]: 5580 d.p.m.
Activity bound (d.p.m.) [20]: 902 d.p.m.
Activity bound (d.p.m.) [21]: 94 d.p.m.
Activity bound (d.p.m.) [22]: 222 d.p.m.
Activity bound (d.p.m.) [23]: 195 d.p.m.
Activity bound (d.p.m.) [24]: 6160 d.p.m.
Molecule: mouse monoclonal anti-human SAP antibody SAP-5
